Results: article PMC6739322, “The molecular basis of chaperone-mediated interleukin 23 assembly control” (Nature Communications, 2019)

Target: T1, IL-12β (purified alone) (human, UniProt P29460 23-328)
T1 construct: interleukin-12 subunit beta (IL-12β), human; The C-terminal His-tag has a TEV cleavage site and is separated by a GS linker, so residues may be left after cleavage; also called unlabeled IL-12β; source: ExpiCHO, transiently transfected, purified from supernatant (HisTrap, TEV, SEC); not shown: His-tag, C-terminal, cleaved
T1 sequence (looked up): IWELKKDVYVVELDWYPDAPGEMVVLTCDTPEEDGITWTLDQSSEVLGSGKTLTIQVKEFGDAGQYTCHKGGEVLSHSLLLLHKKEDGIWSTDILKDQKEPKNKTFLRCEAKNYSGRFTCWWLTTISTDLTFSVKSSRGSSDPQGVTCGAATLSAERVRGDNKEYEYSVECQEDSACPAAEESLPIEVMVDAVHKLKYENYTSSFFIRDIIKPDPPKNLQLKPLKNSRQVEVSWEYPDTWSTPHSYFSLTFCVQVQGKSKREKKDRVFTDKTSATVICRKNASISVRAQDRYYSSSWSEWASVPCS
Assay: NMR titration; 1H,15N HSQC of 15N-labelled IL-23α^VVS (100 μM) without and with a two-fold molar excess of unlabeled IL-12β; 10 mM KPi pH 7.5, 298 K
Details: both partners purified

B1: IL-23α^C14,22V,C54S (purified) (natural protein, human)
chain: RAVPGGSSPAWTQVQQLSQKLVTLAWSAHPLVGHMDLREEGDEETTNDVPHIQSGDGCDPQGLRDNSQFCLQRIHQGLIFYEKLLGSDIFTGEPSLLPDSPVGQLHASLLGLSQLLQPEGHHWETQQIPSLSPSQPWQRLLLRFKILRSLQAFVAVAARVFAHGAATLSP
notes: interleukin-23 subunit alpha (IL-23α), human; The His-tag has a TEV site and is separated by a 2x GS linker, so residues may be left after cleavage; The protein was 15N-labelled for NMR; The internal disulfide C58-C70 is formed; also called IL-23α^VVS; not shown: His-tag, N-terminal, cleaved
binding result: binds
